No end group written: not given here.
Legend:
[1] = target: T1, CaATP-G-actin (rabbit skeletal muscle actin, monomer) (rabbit), P68135; assay: cross-linking; competition: 6 μM Fl-LL-37 and 0-16 μM histatin-3 or histatin-5 for transglutaminase cross-linking to 4 μM CaATP-G-actin, 22 °C; SDS-PAGE visualized by fluorescence; conditions: remark: other sources report otherwise
[2] = target: T1, CaATP-G-actin (rabbit skeletal muscle …); assay: cross-linking; bacterial transglutaminase (0.3-0.4 mg/ml) at 22 °C, 4 μM CaATP-G-actin or TG-G-actin with 4-8 μM peptide, 1 to 30 min, stopped by 1 mM cysteamine; 12% SDS-PAGE, Coomassie blue or fluorescence, densitometry; one series with 0-200 mM NaCl (1 min); conditions: remark: other sources report otherwise

## DSHAKRHHGYKRKFHEKHHSHRGY [Histatin-5]
[1]
  percent decrease of the cross-linking of 6 μM Fl-LL-37 to 4 μM G-actin at 3 μM histatin: 68%

## DSHAKRHHGYKRKFHEKHHSHRGY (also: FAM label, position not given here) [FAM labeled histatin-5]
[2]
  percent decrease of the extent of cross-linking with 200 mM NaCl: > 70%

From article PMC5340040
